Source: the supplement of paper PMC7125110
± gives the standard error. This sample holds only a part of the variants without activity.

B1: glmS ribozyme (parent)
chain: AUAAAAGCGCCAGAACUACAGAAAUGUAGUUGACGAGGAGGAGGUUUAUCGAAUUUUCGGCGGAUGCCUCCAAA

How the values were obtained:
Conditions in all cases: with glucosamine-6-phosphate
glucosamine-6-phosphate [1] = variants of: B1; assay: self-cleavage kobs at 160 uM GlcN6P; higher = faster cleavage; RNA array
In short: (§1)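 Ribozyme variants carrying barcodes were transcribed in situ on sequenced MiSeq chips by E. coli RNA polymerase and tracked at 37 °C with a hybridised Cy3 probe. They were exposed to 40 μM to 10 mM glucosamine-6-phosphate in HEPES/KCl/Mg(OAc)2 buffer. kobs came from exponential decay fits of normalised per-tile medians, and kcat and KM from weighted Michaelis–Menten fits.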

glucosamine-6-phosphate [2] = variants of: B1; assay: self-cleavage kobs at 2500 uM GlcN6P; higher = faster cleavage; RNA array
In short: as §1

glucosamine-6-phosphate [3] = variants of: B1; assay: self-cleavage kobs at 640 uM GlcN6P; higher = faster cleavage; RNA array
In short: as §1

glucosamine-6-phosphate [4] = variants of: B1; assay: self-cleavage kobs at 10000 uM GlcN6P; higher = faster cleavage; RNA array
In short: as §1

Variant | self-cleavage kobs at 160 uM GlcN6P (glucosamine-6-phosphate [1]) [s⁻¹] | self-cleavage kobs at 2500 uM GlcN6P (glucosamine-6-phosphate [2]) [s⁻¹] | self-cleavage kobs at 640 uM GlcN6P (glucosamine-6-phosphate [3]) [s⁻¹] | self-cleavage kobs at 10000 uM GlcN6P (glucosamine-6-phosphate [4]) [s⁻¹]
AUAAAAGCGCCAGAAGUACAGAAAUGUAGUUGACGAGGAGGAGGUUUAUCGGAUUUUCGGCGGAUGCCGCCAAA [C16G A52G U69G] | 9.5e-05 ± 3e-05 | 0.000143 ± 3.9e-05 |  | 
AUAAAAGCUCCAGAAUUACAGAAAUGUAGUUGACGAGGAGGAGGUUUAUCGAAUUUUCGGCGGAUGCCUCCAAA [G9U C16U] | < 1e-05 | < 1e-05 | < 1e-05 | < 1e-05
AUAAACGCGCCAGAACUACAGAAAUGUAGUUUACGAGGAGGAGGUUUAUCGAAUUUUCGGCGGGUGUCUCCAAA [A6C G32U A64G C67U] | < 1e-05 | < 1e-05 | < 1e-05 | 
AUAAAAUCGCCAUAUCUACAGAAAUGUAGUUGACGAGGACAAGGUUUAUCGUAUUUUCGGCGGAUGCCUCCAAA [G7U G13U A15U G40C G41A A52U] | < 1e-05 | < 1e-05 | < 1e-05 | 
AUAAAAGCGCCAGAACUACAGAAAUGUAGUUGACGAGGAGGACGUUUGUCGAAUUUUCGGCGGAUGCCUCGAAA [G43C A48G C71G] | < 1e-05 | < 1e-05 | < 1e-05 | 
AUAAAAGCGCCAGAACUACAGAAAUGUAGUUGACGAGGAGGAGGUUGAUAGAAUUUUCGGCGGGUGCCGCCAAA [U47G C50A A64G U69G] | 0.000158 ± 4.6e-05 | 0.000142 ± 3.1e-05 | 0.000155 ± 3.9e-05 | 3.49e-05 ± 1.6e-05
AUAAAAGCGCAAGAACUACAGAAAUGUAGCUGACGAGGAGGAGGUUUAUCGAAUUUUCGGCAGAUGCCUCCAAA [C11A U30C G62A] | < 1e-05 | < 1e-05 | < 1e-05 | 
AUAAAACCGCCAGAACUACAGAAAUGUAGUUGACGAGGAGGAGGUUUAUUUAAUUUUCGGCGGAUGCCUACAAA [G7C C50U G51U C70A] | < 1e-05 | < 1e-05 |  | 
AUAAAAGGGCCAGAACUACAGAAAUGUAGUUGACGAGAAGGAGGUUUAUCGAAUUUUGGGCGGAUGGCUCCAAA [C8G G38A C58G C67G] | 0.000186 ± 5e-05 | 0.000435 ± 0.00014 | 0.000538 ± 0.00013 | 
AUAAAAGCGCCAGCACUACAGAAAUGUAGUUGACGAGGAGGAGGUUUAUCGAAUUUUCGGCGCAUGCCGCCAAA [A14C G63C U69G] | 7.07e-05 ± 2.1e-05 | 4.71e-05 ± 1.8e-05 | 6.64e-05 ± 2.3e-05 | 
AUAAAGGCGCCAGAACUACAGAAAUGUAGUUGACGGGGAGGAGGUUUAUCGAAUUAUCGGCGGAUGCCUCCAAA [A6G A36G U56A] | < 1e-05 | < 1e-05 | < 1e-05 | 
AUAAACGCGCCGGAACUACAGAAAUGUAGUUGACGAGGAGGAGGUUUAUCGAAUUUUCGGCGGAUGCGUGCAAA [A6C A12G C68G C70G] | < 1e-05 | < 1e-05 | < 1e-05 | 
AUAAAAGGGCCAGAAUUACAGAAAUGUAGUUGAUGAGGAGGAGGUUUAUCGAAUUUUCGGCGGAGGCCUCCAAA [C8G C16U C34U U65G] | < 1e-05 |  |  | 
